Laboratory results as given in patent US20180282808A1 (ADAPTIVE BIOTECHNOLOGIES, published 2018).

T1: WT1 (Wilms' tumor antigen-1) peptide on HLA-A*02:01 (human)
T1 peptide: YMLDLQPETT

B1: eJH30_WT1C_5 (TCR, V domains shown)
V domain 1: GENVEQHPSTLSVQEGDSAVIKCTYSDSASNYFPWYKQELGKGPQLIIDIRSNVGEKKDQRIAVTLNKTAKHFSLHITETQPEDSAVYFCAAGGRDDKIIFGKGTRLHILP
V domain 2: EPEVTQTPSHQVTQMGQEVILRCVPISNHLYFYWYRQILGQKVEFLVSFYNNEISEKSEIFDDQFSVERPDGSNFTLKIRSTKLEDSAMYFCASSERLGTMAYNSPLHFGNGTRLTVTE
B2: eJH30_WT1C_8 (TCR, V domains shown)
V domain 1: GQQLNQSPQSMFIQEGEDVSMNCTSSSIFNTWLWYKQEPGEGPVLLIALYKAGELTSNGRLTAQFGITRKDSFLNISASIPSDVGIYFCAGRGSQGNLIFGKGTKLSVKP
V domain 2: DTAVSQTPKYLVTQMGNDKSIKCEQNLGHDTMYWYKQDSKKFLKIMFSYNNKELIINETVPNRFSPKSPDKAHLNLHINSLELGDSAVYFCASSHWQETQYFGPGTRLLVLE
B3: eJH64_WT1C_6 (TCR, V domains shown)
Valpha: AQSVAQPEDQVNVAEGNPLTVKCTYSVSGNPYLFWYVQYPNRGLQFLLKYITGDNLVKGSYGFEAEFNKSQTSFHLKKPSALVSDSALYFCAVRDMRYGGATNKLIFGTGTLLAVQP
Vbeta: ETGVTQTPRHLVMGMTNKKSLKCEQHLGHNAMYWYKQSAKKPLELMFVYSLEERVENNSVPSRFSPECPNSSHLFLHLHTLQPEDSALYLCASSQDGLAGAASFNNEQFFGPGTRLTVL

How the values were obtained:
[1] = target: WT1 peptide (…; SEQ ID NO: 97) presented on peptide-pulsed T2 cells (UniProt P61769 21-119, limits assumed); experiment: cell-based or functional assay
[2] = target: WT1 peptide (…; SEQ ID NO: 97) presented on peptide-pulsed T2 cells (UniProt P61769); experiment: cell-based or functional assay; conditions: scale: nM
[3] = target: T1, WT1 (Wilms' tumor antigen-1) peptide on …; experiment: full-length, on cells

Binder | EC50 (nM) of functional avidity: CD69 MFI of TCR+ JRT3 cells against WT1-pep concentration pulsed on T2 cells [1] | EC50 of functional avidity: CD69 MFI of TCR+ cells against WT1 10mer peptide concentration pulsed on T2 cells [2] | EC50 of peptide [3]
B1 | 51.9 nM |  | 
B2 | 10.9 nM |  | 
B3 |  | 0.7 | 0.7 nM
